The target in assay [1] is T1, human TL1A-His protein (human, UniProt O95150 72-251).
T1 construct: also called human TL1A extracellular domain (TL1A-ECD) with 6×His tag
T1 sequence: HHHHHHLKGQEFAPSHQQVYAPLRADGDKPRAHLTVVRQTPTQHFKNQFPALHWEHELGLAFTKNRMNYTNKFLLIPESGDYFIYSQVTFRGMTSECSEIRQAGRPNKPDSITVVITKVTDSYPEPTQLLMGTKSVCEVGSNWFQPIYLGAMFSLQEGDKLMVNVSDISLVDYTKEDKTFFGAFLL
The assay can be described thus: SPR (Biacore 8K), antibody captured on Protein A chip, TL1A-his as analyte. Background: In SPR one partner is held on a chip, and binding of the other changes the refractive index at the surface.

The target in assay [2] is T1, human TL1A-His protein. The experiment in a line: ELISA. In general terms: An ELISA detects its analyte on a solid surface through an enzyme-linked reagent.

Numbering of substitutions follows the chain as printed.

As for positive control antibody PRA023, in the assay with human TL1A-His protein [1], the Kd turned out to be 0.537 nM, the dissociation rate constant (koff) is 0.000166 s⁻¹ and the on-rate constant (kon) came out at 308000 M⁻¹ s⁻¹.

B1: humanized antibody 72851 (antibody, human IgG1, kappa, L234A L235A, V domains shown)
VH: QVQLVQSGAEVKKPGASVKVSCKASGYSFTGYTMNWVRQAPGQNLEWIGLINPYSGGTNYNQKFKGRATLTVDTSISTAYMELSRLRSDDTAVYYCASIYQRHDGIAYWGQGTLVTVSS
VL: EIVLTQSPDFQSVTPKEKVTITCSASSSVNYMHWYQQKPDQSPKLLIKDTSKLASGVPSRFSGSGSGTDFTLTINSLEAEDAATYYCQQWSSSPYTFGGGTKVEIKR
notes: Humanized from 728H4D9; human IgG1/kappa
B1: in the assay with human TL1A-His protein [1], the affinity, expressed as Kd, was 0.212 nM; the off-rate constant (koff) is 0.000212 s⁻¹; the kon was 1e+06 M⁻¹ s⁻¹.

B2: 311V25 (antibody, human IgG1, kappa, L234A L235A, V domains shown)
VH: EVQLVESGGGLVQPGGSLKLSCAASGFTFSNYWMNWVRQASGKGLEWVGGIRLKSNNYATQYAESVKGRFTISRDDSKNTAYLQMNSLKTEDTAVYYCTPLLLNGMDYWGQGTTVTVSS
VL: EIVLTQSPDFQSVTPKEKVTITCSASSSVSYMHWYQQKPDQSPKLWIYDTSNLASGVPSRFSGSGSGTDFTLTINSLEAEDAATYYCFQESGYPFTFGQGTKLEIKR
As to B2, in the assay with human TL1A-His protein [2], the binding result is “binds”.

B3: 311V34-7 (antibody, human IgG1, kappa, L234A L235A, V domains shown)
VH: B2 VH with A59R, N104S
VL: B2 VL
On to B3, for which the binding result with human TL1A-His protein [2] is on record as “binds”.

B4: 311V31-7 (antibody, human IgG1, kappa, L234A L235A, V domains shown)
VH: B2 VH with A59K, N104S
VL: B2 VL
With B4, the binding result with human TL1A-His protein [2] was “binds”.

B5: 311V34 (antibody, human IgG1, kappa, L234A L235A, V domains shown)
VH: B2 VH with A59R
VL: B2 VL
B5: in the assay with human TL1A-His protein [2], the binding result is on record as “binds”.

B6: 311V25-7 (antibody, human IgG1, kappa, L234A L235A, V domains shown)
VH: B2 VH with N104S
VL: B2 VL
As for B6, in the assay with human TL1A-His protein [2], the binding result is given as “binds”.

B7: humanized antibody 31122 (antibody, human IgG1, kappa, L234A L235A, V domains shown)
VH: B2 VH with A59T
VL: B2 VL
notes: Humanized from 311C9E10; human IgG1/kappa
In the assay with human TL1A-His protein [1], B7 registered a Kd of 0.394 nM, a koff of 0.000159 s⁻¹ and a kon of 405000 M⁻¹ s⁻¹.

B8: 311V31 (antibody, human IgG1, kappa, L234A L235A, V domains shown)
VH: B2 VH with A59K
VL: B2 VL
In the case of B8, the binding result with human TL1A-His protein [2] is “binds”.

By Kd is commonly meant the free concentration of one partner at which half of the binding sites on the other are occupied at equilibrium, for simple one-to-one binding. A low value points to tighter binding. What is called koff is a measure of how fast the partners let go of each other. Low values mean slow dissociation, high ones fast dissociation. The term kon denotes a measure of how fast the partners come together. High values mean faster complex formation, low ones slower complex formation.

Values taken from patent EP4674870A1 (Sunshine Guojian Pharmaceutical (Shanghai) Co., Ltd., dated 2026).
